Assay results from patent US20250011363A1, “OPTIMIZED SHORTENED PEPTIDE THAT BINDS TO ACETYLCHOLINE RECEPTOR, AND USE THEREOF” (SKINMED CO., LTD., priority 2021, published 2025).

Biological target: acetylcholine receptor (Homo sapiens, UniProt P02708)
Assay: SPR binding affinity (RU) of optimized 5mer/6mer/7mer peptides, Examples 6-7
Conditions: SPR, peptides at 10 μM; 6mer-2 Bottom sequence
How it was run: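 Single-concentration screen: 10 μM peptide, SPR detection, binding expressed as RU.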

Sequence of acetylcholine receptor (P02708 21-457): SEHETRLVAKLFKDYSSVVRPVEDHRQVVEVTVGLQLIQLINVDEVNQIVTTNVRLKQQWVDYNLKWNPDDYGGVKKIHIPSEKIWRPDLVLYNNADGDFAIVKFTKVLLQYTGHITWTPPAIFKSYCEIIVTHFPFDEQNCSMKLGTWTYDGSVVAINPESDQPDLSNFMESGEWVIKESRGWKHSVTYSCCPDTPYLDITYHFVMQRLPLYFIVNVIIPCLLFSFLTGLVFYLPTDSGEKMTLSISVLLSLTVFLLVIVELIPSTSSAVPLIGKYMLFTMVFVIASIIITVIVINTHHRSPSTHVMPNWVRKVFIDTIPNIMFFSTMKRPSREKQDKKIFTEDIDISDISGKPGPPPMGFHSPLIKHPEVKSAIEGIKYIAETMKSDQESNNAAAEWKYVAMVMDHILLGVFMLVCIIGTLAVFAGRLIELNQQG

Compared with 6mer-2-1023 (KAEFKR), 6mer-2-1024 (RFHNKR) is higher in Binding affinity: 26 Ru for the first, 37 Ru for the second.

First: 6mer-2-1025 (RCSHRR)
Second: 6mer-2-1026 (KENHRK)
The Binding affinity of the first is higher: 39 Ru for the first, 33 Ru for the second.

First: 6mer-2-1027 (KTPVKK)
Second: 6mer-2-1028 (KPEHRR)
The Binding affinity of the first is lower: 32 Ru for the first, 41 Ru for the second.

First: 6mer-2-1029 (KEEFKK)
Second: 6mer-2-1030 (RAPFKK)
The Binding affinity of the first is higher: 40 Ru for the first, 28 Ru for the second.

Compared with 6mer-2-1031 (RAWERK), 6mer-2-1032 (KETVKR) is lower in Binding affinity: 33 Ru for the first, 31 Ru for the second.

Compared with 6mer-2-1033 (KMDEKK), 6mer-2-1034 (KHSWRR) is higher in Binding affinity: 28 Ru for the first, 38 Ru for the second.

Compared with 6mer-2-1035 (RPPVKK), 6mer-2-1036 (KAKNKR) is lower in Binding affinity: 39 Ru for the first, 25 Ru for the second.

First: 6mer-2-1037 (KIHWKK)
Second: 6mer-2-1038 (KHWERK)
The Binding affinity of the first is lower: 26 Ru for the first, 33 Ru for the second.

First: 6mer-2-1039 (RNHFRK)
Second: 6mer-2-1040 (KYAWRK)
The Binding affinity of the first is lower: 26 Ru for the first, 36 Ru for the second.

Going from 6mer-2-1041 (RACDKR) to 6mer-2-1042 (KKMFRK), the Binding affinity rises from 22 Ru to 36 Ru.

First: 6mer-2-1043 (RDKGKK)
Second: 6mer-2-1044 (KHTDKK)
The Binding affinity of the first is lower: 40 Ru for the first, 41 Ru for the second.

Compared with 6mer-2-1045 (RHAHRR), 6mer-2-1046 (RNSEKR) is lower in Binding affinity: 41 Ru for the first, 39 Ru for the second.

First: 6mer-2-1047 (RHDDKR)
Second: 6mer-2-1048 (RIHNRK)
The Binding affinity of the first is higher: 28 Ru for the first, 22 Ru for the second.

6mer-2-1049 (KMSPRR) and 6mer-2-1050 (KPPPRK) are the same in Binding affinity: 26 Ru for the first, 26 Ru for the second.

Compared with 6mer-2-1051 (RKHMRR), 6mer-2-1052 (KAPARK) is lower in Binding affinity: 24 Ru for the first, 23 Ru for the second.

Going from 6mer-2-1053 (KEMGKK) to 6mer-2-1054 (KKNKKR), the Binding affinity rises from 34 Ru to 43 Ru.

First: 6mer-2-1055 (KPDFKR)
Second: 6mer-2-1056 (RNDERK)
The Binding affinity of the first is higher: 30 Ru for the first, 22 Ru for the second.

Compared with 6mer-2-1057 (RKKKKK), 6mer-2-1058 (RMPWKK) is lower in Binding affinity: 25 Ru for the first, 24 Ru for the second.

6mer-2-1059 (RFADRR) and 6mer-2-1060 (KTNERK) are the same in Binding affinity: 35 Ru for the first, 35 Ru for the second.

Going from 6mer-2-1061 (KPPIKK) to 6mer-2-1062 (KYNIRK), the Binding affinity falls from 38 Ru to 35 Ru.

First: 6mer-2-1063 (RFNVRK)
Second: 6mer-2-1064 (RCMKRR)
The Binding affinity of the first is lower: 24 Ru for the first, 39 Ru for the second.

First: 6mer-2-1065 (RIANRK)
Second: 6mer-2-1066 (KPEHKR)
The Binding affinity of the first is lower: 27 Ru for the first, 29 Ru for the second.

First: 6mer-2-1067 (RDEIRK)
Second: 6mer-2-1068 (RIHVKK)
The Binding affinity of the first is higher: 29 Ru for the first, 26 Ru for the second.

Compared with 6mer-2-1069 (KHDMKK), 6mer-2-1070 (RPHVRR) is lower in Binding affinity: 36 Ru for the first, 31 Ru for the second.

First: 6mer-2-1071 (RTTWRK)
Second: 6mer-2-1072 (KPHWKR)
The Binding affinity of the first is lower: 25 Ru for the first, 29 Ru for the second.

Compared with 6mer-2-1073 (KYSWRK), 6mer-2-1074 (RPMGRK) is higher in Binding affinity: 24 Ru for the first, 33 Ru for the second.

Going from 6mer-2-1075 (RHMERK) to 6mer-2-1076 (RYCIRR), the Binding affinity rises from 31 Ru to 34 Ru.

First: 6mer-2-1077 (KMTIKK)
Second: 6mer-2-1078 (KDTFRR)
The Binding affinity of the first is lower: 34 Ru for the first, 40 Ru for the second.

Compared with 6mer-2-1079 (KCNEKK), 6mer-2-1080 (RKHKKK) is lower in Binding affinity: 40 Ru for the first, 23 Ru for the second.

Going from 6mer-2-1081 (KYKMRR) to 6mer-2-1082 (KYTERR), the Binding affinity falls from 32 Ru to 31 Ru.

Going from 6mer-2-1083 (KTKGKR) to 6mer-2-1084 (REKPRK), the Binding affinity falls from 39 Ru to 29 Ru.

Compared with 6mer-2-1085 (RPEIRK), 6mer-2-1086 (KNDWRK) is lower in Binding affinity: 42 Ru for the first, 21 Ru for the second.

First: 6mer-2-1087 (KEEMRR)
Second: 6mer-2-1088 (RPCEKK)
The Binding affinity of the first is lower: 21 Ru for the first, 39 Ru for the second.

Going from 6mer-2-1089 (RKTDRR) to 6mer-2-1090 (KEMHKK), the Binding affinity falls from 43 Ru to 33 Ru.

Going from 6mer-2-1091 (RFDNKR) to 6mer-2-1092 (RAKFRR), the Binding affinity falls from 31 Ru to 21 Ru.

6mer-2-1093 (KTTDKK) and 6mer-2-1094 (KAWERK) are the same in Binding affinity: 43 Ru for the first, 43 Ru for the second.

6mer-2-1095 (KYSMRR) and 6mer-2-1096 (RANVKR) are the same in Binding affinity: 39 Ru for the first, 39 Ru for the second.

First: 6mer-2-1097 (RFWEKK)
Second: 6mer-2-1098 (KHPKRR)
The Binding affinity of the first is lower: 23 Ru for the first, 28 Ru for the second.

Going from 6mer-2-1099 (REDWRR) to 6mer-2-1100 (RTAPKK), the Binding affinity rises from 21 Ru to 24 Ru.

Going from 6mer-2-1101 (RTKMRR) to 6mer-2-1102 (KHKGKR), the Binding affinity falls from 38 Ru to 32 Ru.

Going from 6mer-2-1103 (RDAWRK) to 6mer-2-1104 (RYTKKR), the Binding affinity falls from 42 Ru to 38 Ru.

6mer-2-1105 (RNNAKK) and 6mer-2-1106 (KDKVKR) are the same in Binding affinity: 28 Ru for the first, 28 Ru for the second.

First: 6mer-2-1107 (RAHERK)
Second: 6mer-2-1108 (KKKVRR)
The Binding affinity of the first is lower: 29 Ru for the first, 36 Ru for the second.

Going from 6mer-2-1109 (KEDMRK) to 6mer-2-1110 (RMTKKK), the Binding affinity rises from 26 Ru to 37 Ru.

Compared with 6mer-2-1111 (REDEKK), 6mer-2-1112 (RASWRK) is higher in Binding affinity: 23 Ru for the first, 26 Ru for the second.

First: 6mer-2-1113 (KPNFRK)
Second: 6mer-2-1114 (RKKFRK)
The Binding affinity of the first is higher: 43 Ru for the first, 34 Ru for the second.

Going from 6mer-2-1115 (KYSPRK) to 6mer-2-1116 (KMEVKK), the Binding affinity falls from 39 Ru to 31 Ru.

First: 6mer-2-1117 (RMHVKR)
Second: 6mer-2-1118 (RFDGRR)
The Binding affinity of the first is lower: 21 Ru for the first, 42 Ru for the second.

Going from 6mer-2-1119 (KCTVRK) to 6mer-2-1120 (RDMMKK), the Binding affinity falls from 39 Ru to 28 Ru.

Going from 6mer-2-1121 (KPSKRR) to 6mer-2-1122 (RCNFKK), the Binding affinity rises from 21 Ru to 22 Ru.

First: 6mer-2-1123 (RITARR)
Second: 6mer-2-1124 (RKTWRK)
The Binding affinity of the first is lower: 36 Ru for the first, 39 Ru for the second.

First: 6mer-2-1125 (RDAFKK)
Second: 6mer-2-1126 (RHEVRR)
The Binding affinity of the first is higher: 30 Ru for the first, 23 Ru for the second.

Compared with 6mer-2-1127 (KAAEKK), 6mer-2-1128 (KNCMRK) is lower in Binding affinity: 42 Ru for the first, 36 Ru for the second.

Going from 6mer-2-1129 (RITGKR) to 6mer-2-1130 (RHSFRK), the Binding affinity falls from 42 Ru to 29 Ru.

Compared with 6mer-2-1131 (RTNAKR), 6mer-2-1132 (RPWERR) is higher in Binding affinity: 26 Ru for the first, 32 Ru for the second.

Compared with 6mer-2-1133 (KMKMKK), 6mer-2-1134 (KYENRK) is higher in Binding affinity: 22 Ru for the first, 30 Ru for the second.

First: 6mer-2-1135 (RANWKR)
Second: 6mer-2-1136 (KMKKKR)
The Binding affinity of the first is lower: 29 Ru for the first, 36 Ru for the second.

Going from 6mer-2-1137 (RTDFKR) to 6mer-2-1138 (KAHFKK), the Binding affinity rises from 22 Ru to 42 Ru.

Compared with 6mer-2-1139 (KAKAKK), 6mer-2-1140 (KMNKKR) is lower in Binding affinity: 39 Ru for the first, 29 Ru for the second.

Going from 6mer-2-1141 (KCTGKR) to 6mer-2-1142 (KKAMKR), the Binding affinity falls from 32 Ru to 30 Ru.

First: 6mer-2-1143 (KACIKK)
Second: 6mer-2-1144 (RFEDRK)
The Binding affinity of the first is higher: 42 Ru for the first, 39 Ru for the second.

Going from 6mer-2-1145 (RIKNRR) to 6mer-2-1146 (REWGRK), the Binding affinity rises from 23 Ru to 32 Ru.

First: 6mer-2-1147 (KFMKKK)
Second: 6mer-2-1148 (KEKGKR)
The Binding affinity of the first is higher: 35 Ru for the first, 34 Ru for the second.

First: 6mer-2-1149 (KIDFRR)
Second: 6mer-2-1150 (KTDVKK)
The Binding affinity of the first is lower: 21 Ru for the first, 42 Ru for the second.

First: 6mer-2-1151 (RYPVRK)
Second: 6mer-2-1152 (RNWAKK)
The Binding affinity of the first is higher: 43 Ru for the first, 37 Ru for the second.

Compared with 6mer-2-1153 (KHKPKR), 6mer-2-1154 (RYEARR) is higher in Binding affinity: 27 Ru for the first, 30 Ru for the second.

Going from 6mer-2-1155 (RNTNRK) to 6mer-2-1156 (KMNARR), the Binding affinity rises from 25 Ru to 35 Ru.

6mer-2-1157 (RNTDRK) and 6mer-2-1158 (RDNIRK) are the same in Binding affinity: 37 Ru for the first, 37 Ru for the second.

Compared with 6mer-2-1159 (KDMGKR), 6mer-2-1160 (RITVKK) is lower in Binding affinity: 40 Ru for the first, 23 Ru for the second.

First: 6mer-2-1161 (RHSFKK)
Second: 6mer-2-1162 (KMSERR)
The Binding affinity of the first is lower: 27 Ru for the first, 34 Ru for the second.

Compared with 6mer-2-1163 (KCHFKK), 6mer-2-1164 (RYNHKR) is lower in Binding affinity: 37 Ru for the first, 33 Ru for the second.

First: 6mer-2-1165 (RIKAKK)
Second: 6mer-2-1166 (KCSIKK)
The Binding affinity of the first is higher: 30 Ru for the first, 26 Ru for the second.

Going from 6mer-2-1167 (RCAPKR) to 6mer-2-1168 (KMKPKK), the Binding affinity rises from 27 Ru to 41 Ru.

First: 6mer-2-1169 (KICERK)
Second: 6mer-2-1170 (KFTIRR)
The Binding affinity of the first is lower: 21 Ru for the first, 25 Ru for the second.

Going from 6mer-2-1171 (KMPARR) to 6mer-2-1172 (KNCERR), the Binding affinity falls from 40 Ru to 36 Ru.

Going from 6mer-2-1173 (KCCNKK) to 6mer-2-1174 (RCEPRK), the Binding affinity falls from 38 Ru to 21 Ru.

First: 6mer-2-1175 (RYSKRR)
Second: 6mer-2-1176 (RYTEKK)
The Binding affinity of the first is lower: 34 Ru for the first, 43 Ru for the second.

Compared with 6mer-2-1177 (RASEKR), 6mer-2-1178 (KTTVRK) is lower in Binding affinity: 41 Ru for the first, 30 Ru for the second.

6mer-2-1179 (KACVKK) and 6mer-2-1180 (RAANRR) are the same in Binding affinity: 34 Ru for the first, 34 Ru for the second.
